Data reported in PMC8666675, “Structural basis of RNA polymerase recycling by the Swi2/Snf2 family of ATPase RapA in Escherichia coli” (The Journal of Biological Chemistry, 2021).

Legend:
E. coli RNAP β′ subunit = molecular target: T1, E. coli RNAP β′ subunit (E. coli, UniProt P0A8T7 1-1407); assay: cryo-EM structure; EC-RapA: 4 μM RNAP core enzyme with DNA/RNA scaffold, then 5 μM RapA, 22 °C, storage buffer (10 mM Hepes pH 7.5, 50 mM NaCl, 0.1 mM EDTA, 5 mM DTT); gel filtration; 1 mM AMPPNP and CMPCPP; BS3 cross-linked; 3.3 Å; details: both partners purified
T1 construct: RNA polymerase β′ subunit, E. coli; Stood in the assay as a subunit of the core enzyme m2, not alone; source: E. coli BL21(DE3), pVS10, purified as part of the RNAP core enzyme
T1 sequence (P0A8T7 whole entry): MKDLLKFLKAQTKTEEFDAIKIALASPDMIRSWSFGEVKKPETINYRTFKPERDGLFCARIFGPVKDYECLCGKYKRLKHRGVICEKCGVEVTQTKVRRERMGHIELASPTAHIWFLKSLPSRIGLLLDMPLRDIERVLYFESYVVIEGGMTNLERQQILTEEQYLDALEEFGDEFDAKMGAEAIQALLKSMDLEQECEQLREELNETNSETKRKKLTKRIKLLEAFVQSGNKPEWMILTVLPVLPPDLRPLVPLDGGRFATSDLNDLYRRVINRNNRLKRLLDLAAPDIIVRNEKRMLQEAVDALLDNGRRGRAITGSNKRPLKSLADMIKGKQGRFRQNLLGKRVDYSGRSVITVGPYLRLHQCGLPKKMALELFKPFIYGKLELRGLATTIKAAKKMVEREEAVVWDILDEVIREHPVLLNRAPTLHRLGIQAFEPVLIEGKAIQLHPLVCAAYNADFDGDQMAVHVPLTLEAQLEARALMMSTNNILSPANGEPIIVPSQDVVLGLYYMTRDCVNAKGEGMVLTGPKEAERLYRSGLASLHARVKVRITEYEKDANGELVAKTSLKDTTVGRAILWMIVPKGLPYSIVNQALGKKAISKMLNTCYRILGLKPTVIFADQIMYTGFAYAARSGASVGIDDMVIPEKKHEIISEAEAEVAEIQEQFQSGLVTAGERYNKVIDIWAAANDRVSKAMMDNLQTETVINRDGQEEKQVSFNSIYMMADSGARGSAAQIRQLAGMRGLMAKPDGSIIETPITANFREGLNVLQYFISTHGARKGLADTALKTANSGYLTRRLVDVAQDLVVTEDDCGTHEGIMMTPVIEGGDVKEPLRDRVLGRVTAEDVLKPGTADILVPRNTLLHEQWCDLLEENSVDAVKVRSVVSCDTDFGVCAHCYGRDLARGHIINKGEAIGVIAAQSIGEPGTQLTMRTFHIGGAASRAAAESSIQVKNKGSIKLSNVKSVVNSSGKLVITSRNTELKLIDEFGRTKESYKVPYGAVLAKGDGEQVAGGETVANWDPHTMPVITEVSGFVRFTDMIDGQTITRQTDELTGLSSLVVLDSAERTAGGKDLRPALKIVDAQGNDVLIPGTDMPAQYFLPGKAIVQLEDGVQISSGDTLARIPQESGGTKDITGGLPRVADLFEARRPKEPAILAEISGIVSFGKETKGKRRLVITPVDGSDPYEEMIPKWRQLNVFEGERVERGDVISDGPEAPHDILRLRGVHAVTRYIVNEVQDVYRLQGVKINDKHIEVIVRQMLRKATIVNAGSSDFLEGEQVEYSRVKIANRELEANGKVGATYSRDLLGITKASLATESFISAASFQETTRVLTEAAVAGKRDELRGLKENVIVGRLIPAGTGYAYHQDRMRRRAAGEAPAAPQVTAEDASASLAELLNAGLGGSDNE

E. coli RNAP β subunit = molecular target: T2, E. coli RNAP β subunit (E. coli, UniProt P0A8V2 1-1342); assay: as above; details: both partners purified
T2 construct: RNA polymerase β subunit, E. coli; Stood in the assay as a subunit of the core enzyme m2, not alone; source: E. coli BL21(DE3), pVS10, purified as part of the RNAP core enzyme
T2 sequence (P0A8V2 whole entry): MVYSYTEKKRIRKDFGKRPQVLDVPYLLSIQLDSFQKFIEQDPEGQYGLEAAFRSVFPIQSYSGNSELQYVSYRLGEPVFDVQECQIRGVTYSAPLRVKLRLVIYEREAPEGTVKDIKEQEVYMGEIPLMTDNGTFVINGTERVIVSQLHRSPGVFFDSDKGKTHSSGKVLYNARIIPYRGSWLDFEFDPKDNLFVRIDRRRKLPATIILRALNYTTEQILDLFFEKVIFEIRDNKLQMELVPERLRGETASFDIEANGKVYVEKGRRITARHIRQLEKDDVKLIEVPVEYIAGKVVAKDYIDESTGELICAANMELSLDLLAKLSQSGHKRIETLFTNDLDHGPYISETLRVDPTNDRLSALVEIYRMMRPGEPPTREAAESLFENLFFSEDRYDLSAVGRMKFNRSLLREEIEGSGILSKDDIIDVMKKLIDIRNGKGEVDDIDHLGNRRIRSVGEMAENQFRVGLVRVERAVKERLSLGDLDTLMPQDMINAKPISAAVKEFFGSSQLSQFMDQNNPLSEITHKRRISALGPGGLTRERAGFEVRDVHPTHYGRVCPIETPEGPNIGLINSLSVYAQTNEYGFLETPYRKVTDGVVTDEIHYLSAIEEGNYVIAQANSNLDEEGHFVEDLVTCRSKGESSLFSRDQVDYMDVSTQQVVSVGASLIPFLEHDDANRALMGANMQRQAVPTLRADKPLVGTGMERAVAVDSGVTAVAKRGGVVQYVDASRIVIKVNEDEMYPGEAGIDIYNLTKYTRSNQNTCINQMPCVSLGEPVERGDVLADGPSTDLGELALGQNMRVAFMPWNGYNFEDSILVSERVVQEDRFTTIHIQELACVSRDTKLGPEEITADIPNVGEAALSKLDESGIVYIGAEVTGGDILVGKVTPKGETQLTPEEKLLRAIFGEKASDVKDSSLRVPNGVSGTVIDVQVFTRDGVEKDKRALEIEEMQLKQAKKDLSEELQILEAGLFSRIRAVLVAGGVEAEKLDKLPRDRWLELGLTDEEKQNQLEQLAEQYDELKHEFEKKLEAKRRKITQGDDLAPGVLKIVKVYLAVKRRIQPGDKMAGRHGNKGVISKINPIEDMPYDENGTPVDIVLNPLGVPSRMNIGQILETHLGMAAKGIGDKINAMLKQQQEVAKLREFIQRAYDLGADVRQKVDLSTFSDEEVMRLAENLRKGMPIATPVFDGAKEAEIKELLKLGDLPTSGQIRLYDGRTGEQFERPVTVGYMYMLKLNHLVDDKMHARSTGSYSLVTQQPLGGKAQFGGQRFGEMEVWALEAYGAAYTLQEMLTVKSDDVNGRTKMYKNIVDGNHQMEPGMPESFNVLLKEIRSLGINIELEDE

B1: E. coli RapA protein (enzyme, UniProt P60240 1-968, looked up)
chain: MPFTLGQRWISDTESELGLGTVVAVDARTVTLLFPSTGENRLYARSDSPVTRVMFNPGDTITSHDGWQMQVEEVKEENGLLTYIGTRLDTEESGVALREVFLDSKLVFSKPQDRLFAGQIDRMDRFALRYRARKYSSEQFRMPYSGLRGQRTSLIPHQLNIAHDVGRRHAPRVLLADEVGLGKTIEAGMILHQQLLSGAAERVLIIVPETLQHQWLVEMLRRFNLRFALFDDERYAEAQHDAYNPFDTEQLVICSLDFARRSKQRLEHLCEAEWDLLVVDEAHHLVWSEDAPSREYQAIEQLAEHVPGVLLLTATPEQLGMESHFARLRLLDPNRFHDFAQFVEEQKNYRPVADAVAMLLAGNKLSNDELNMLGEMIGEQDIEPLLQAANSDSEDAQSARQELVSMLMDRHGTSRVLFRNTRNGVKGFPKRELHTIKLPLPTQYQTAIKVSGIMGARKSAEDRARDMLYPERIYQEFEGDNATWWNFDPRVEWLMGYLTSHRSQKVLVICAKAATALQLEQVLREREGIRAAVFHEGMSIIERDRAAAWFAEEDTGAQVLLCSEIGSEGRNFQFASHMVMFDLPFNPDLLEQRIGRLDRIGQAHDIQIHVPYLEKTAQSVLVRWYHEGLDAFEHTCPTGRTIYDSVYNDLINYLASPDQTEGFDDLIKNCREQHEALKAQLEQGRDRLLEIHSNGGEKAQALAESIEEQDDDTNLIAFAMNLFDIIGINQDDRGDNMIVLTPSDHMLVPDFPGLSEDGITITFDREVALAREDAQFITWEHPLIRNGLDLILSGDTGSSTISLLKNKALPVGTLLVELIYVVEAQAPKQLQLNRFLPPTPVRMLLDKNGNNLAAQVEFETFNRQLNAVNRHTGSKLVNAVQQDVHAILQLGEAQIEKSARALIDAARNEADEKLSAELSRLEALRAVNPNIRDDELTAIESNRQQVMESLDQAGWRLDALRLIVVTHQ
notes: RapA, Swi2/Snf2 family ATPase of E. coli, full-length; NTD is residues 1-109; In the EC-RapA sample the complex was cross-linked with BS3; also called τ factor
What does the source list for B1?
binding result (E. coli RNAP β′ subunit): binds; binding result (E. coli RNAP β subunit): binds
